Assay in all cases: SDS-PAGE without pre-heating, with zymogram; crude enzymes (high concentration of (NH4)2SO4) in loading buffer with 10% SDS, not pre-heated, 10% polyacrylamide gel; compared with samples heated at 100 °C for 5 min; dimer band active on xylan plate
The target in test [1] is Xyn10A, GH10 family xylanase from Aspergillus fumigatus Z5 (Aspergillus fumigatus Z5).
In test [2] the target is Xyn10AdC, CBM1 removed Xyn10A (Aspergillus fumigatus Z5).
Test [3] addresses Xyn10AdLC, CBM1 and linker region removed Xyn10A (Aspergillus fumigatus Z5).

Take “Xyn10A, GH10 family xylanase from Aspergillus fumigatus Z5 (enzyme)”: in test [1], the stoichiometry N is 2. In test [2], “Xyn10AdC, CBM1 removed Xyn10A (domain or fragment)” registered a stoichiometry N of 2. Take “Xyn10AdLC, CBM1 and linker region removed Xyn10A (domain or fragment)”: in test [3], the stoichiometry N amounted to 2.
